Residue numbers refer to the chain shown, from its start. In names and notes the source's numbering stands. Where two headings read alike, the source gives them in different places.
B1: OT-RLuc-005: DD regulated Renilla luciferase (protein)
chain: MTSKVYDPEQRKRMITGPQWWARCKQMNVLDSFINYYDSEKHAENAVIFLHGNAASSYLWRHVVPHIEPVARCIIPDLIGMGKSGKSGNGSYRLLDHYKYLTAWFELLNLPKKIIFVGHDWGACLAFHYSYEHQDKIKAIVHAESVVDVIESWDEWPDIEEDIALIKSEEGEKMVLENNFFVETMLPSKIMRKLEPEEFAAYLEPFKEKGEVRRPTLSWPREIPLVKGGKPDVVQIVRNYNAYLRASDDLPKMFIESDPGFFSNAIVEGAKKFPNTEFVKVKGLHFSQEDAPDEMGKYIKSFVERVLKNEQSGGVQVETISPGDGRTFPKRGQTCVVHYTGMLGDGKKVDSSRDRNKPFKFMLGKQEVIRGWEEGVAQMSVGQGAKLTISPDYAYGATGHPGIIPPHATLVFDVELLELE
B2: OT-hDHFRN-005: hDHFR A125F, Y122I-GFP (protein, UniProt P00374 1-187, looked up, variant A125F Y122I)
Dihydrofolate reductase: MVGSLNCIVAVSQNMGIGKNGDLPWPPLRNEFRYFQRMTTTSSVEGKQNLVIMGKKTWFSIPEKNRPLKGRINLVLSRELKEPPQGAHFLSRSLDDALKLTEQPELANKVDMVWIVGGSSVIKEFMNHPGHLKLFVTRIMQDFESDTFFPEIDLEKYKLLPEYPGVLSDVQEEKGIKYKFEVYEKND
modifications: GFP fusion
notes: hDHFR A125F, Y122I-GFP
B3: OT-DHFRC-029: combination mutant hDHFR (I17V, Y122I) (protein, UniProt P00374 1-187, looked up, variant I17V Y122I)
Dihydrofolate reductase: B2 Dihydrofolate reductase with I17V, F125A
B4: OT-hDHFRC-031: combination mutant hDHFR (N127Y, Y122I) (protein, UniProt P00374 1-187, looked up, variant N127Y Y122I)
Dihydrofolate reductase: B2 Dihydrofolate reductase with F125A, N127Y
B5: OT-hDHFRC-030: combination mutant hDHFR (Y122I, M140I) (protein, UniProt P00374 1-187, looked up, variant Y122I M140I)
Dihydrofolate reductase: B2 Dihydrofolate reductase with F125A, M140I
B6: OT-hDHFRC-032: combination mutant hDHFR (Y122I, H131R, E144G) (protein, UniProt P00374 1-187, looked up, variant Y122I H131R E144G)
Dihydrofolate reductase: B2 Dihydrofolate reductase with F125A, H131R, E144G
B7: OT-RLuc-006: DD regulated Renilla luciferase (protein)
chain: MTSKVYDPEQRKRMITGPQWWARCKQMNVLDSFINYYDSEKHAENAVIFLHGNAASSYLWRHVVPHIEPVARCIIPDLIGMGKSGKSGNGSYRLLDHYKYLTAWFELLNLPKKIIFVGHDWGACLAFHYSYEHQDKIKAIVHAESVVDVIESWDEWPDIEEDIALIKSEEGEKMVLENNFFVETMLPSKIMRKLEPEEFAAYLEPFKEKGEVRRPTLSWPREIPLVKGGKPDVVQIVRNYNAYLRASDDLPKMFIESDPGFFSNAIVEGAKKFPNTEFVKVKGLHFSQEDAPDEMGKYIKSFVERVLKNEQSGISLIAALAVDYVIGMENAMPWNLPADLAWFKRNTLNKPVIMGRHTWESIGRPLPGRKNIILSSQPGTDDRVTWVKSVDEAIAACGDVPEIMVIGGGRVIEQFLPKAQKLYLTHIDAEVEGDTHFPDYEPDDWESVFSEFHDADAQNSHSYCFEILERR
B8: OT-RLuc-004: DD regulated Renilla luciferase (protein)
chain: MISLIAALAVDYVIGMENAMPWNLPADLAWFKRNTLNKPVIMGRHTWESIGRPLPGRKNIILSSQPGTDDRVTWVKSVDEAIAACGDVPEIMVIGGGRVIEQFLPKAQKLYLTHIDAEVEGDTHFPDYEPDDWESVFSEFHDADAQNSHSYCFEILERRSGTSKVYDPEQRKRMITGPQWWARCKQMNVLDSFINYYDSEKHAENAVIFLHGNAASSYLWRHVVPHIEPVARCIIPDLIGMGKSGKSGNGSYRLLDHYKYLTAWFELLNLPKKIIFVGHDWGACLAFHYSYEHQDKIKAIVHAESVVDVIESWDEWPDIEEDIALIKSEEGEKMVLENNFFVETMLPSKIMRKLEPEEFAAYLEPFKEKGEVRRPTLSWPREIPLVKGGKPDVVQIVRNYNAYLRASDDLPKMFIESDPGFFSNAIVEGAKKFPNTEFVKVKGLHFSQEDAPDEMGKYIKSFVERVLKNEQ
B9: OT-RLuc-001: constitutive Renilla luciferase construct (protein, listed as Renilla reniformis)
chain: MTSKVYDPEQRKRMITGPQWWARCKQMNVLDSFINYYDSEKHAENAVIFLHGNAASSYLWRHVVPHIEPVARCIIPDLIGMGKSGKSGNGSYRLLDHYKYLTAWFELLNLPKKIIFVGHDWGACLAFHYSYEHQDKIKAIVHAESVVDVIESWDEWPDIEEDIALIKSEEGEKMVLENNFFVETMLPSKIMRKLEPEEFAAYLEPFKEKGEVRRPTLSWPREIPLVKGGKPDVVQIVRNYNAYLRASDDLPKMFIESDPGFFSNAIVEGAKKFPNTEFVKVKGLHFSQEDAPDEMGKYIKSFVERVLKNEQ

How the values were obtained:
[1] = cited from earlier work; for Duration of action: in vivo
[2] = system: HCT-116 cells; experiment: DD regulated luciferase, western blot and luciferase activity; assay type: cell-based, human; conditions: 1 μM Shield-1 or 10 μM Trimethoprim, 24 h
Text: DD regulated luciferase can be used to track cells in vivo e.g. T cells. Firefly luciferase or Renilla luciferase may be utilized as the payload. HCT-116 cells were stably transduced with the constitutive (OT-RLuc-001) or DD regulated constructs (OT-RLuc-002, OT-RLuc-003, OT-RLuc-004, OT-RLuc-005 and OT-RLuc-006). […] Blots were also probed with anti-GAPDH antibody to ensure uniform protein loading in all samples. […] (FIG. 59A).
Ligand dependent activity of Renilla and firefly luciferase constructs was measured using coelentrazine and luciferin substrates respectively. […] Luciferase activity was measured as luminescence reading using a luminometer and the values were compared to control samples consisting of lysis buffer and substrate.

[3] = system: NIH 3T3 cells; experiment: hDHFR mutant-GFP reporter stability with DMSO, MTX or TMP (FACS); assay type: cell-based; conditions: for GFP intensity Fold Change vs DMSO: 48 h
Text: Known destabilizing mutations in E. coli DHFR (ecDHFR) were mapped onto the structure of human DHFR (hDHFR) and corresponding mutations in wild type hDHFR protein were generated using site directed mutagenesis. hDHFR mutants were then fused to a linker, GGSGGG (SEQ ID NO: 2728) and a GFP reporter gene at the N terminus. […] The hDHFR N terminus mutant construct cloned into pLVX. IRES. The reporter constructs were transfected into NIH 3T3 cells. […] DMSO was used as control. Fluorescence signal was measured by FACS and median fluorescence signal intensity was calculated. The destabilizing mutation co-efficient was calculated as the fold change in GFP intensity in the hDHFR mutant constructs compared to the hDHFR (WT) in the absence of the ligand. Destabilizing mutation co-efficients less than 1 are desired in DDs.
Percentage of GFP positive cells as a measure of ligand dependent DD stabilization in each transfection was calculated using FACS Calibur™ (see Table 46).

[4] = system: hDHFR; experiment: Immunoblot of hDHFR WT and mutants after TMP, MTX or DMSO; assay type: cell-based, human; conditions: MTX or DMSO 48 h
Text: The results were consistent using both the AcGFP antibody as well as the hDHFR antibody.

[5] = system: HCT116 cells; experiment: Combination mutation analysis, TMP dose response MFI; assay type: cell-based, human
Text: Mutations identified by random mutagenesis were combined with mutations identified by site directed mutagenesis.

| Molecule | Luciferase stabilization by western blot (FIG. 59A) [2] | MFI ([5]; DMSO, 48 h) | Stabilization ratio ([5]; TMP dose (log) −4) | MFI ([5]; TMP dose (log) −4, 48 h) | Stabilization ratio ([5]; TMP dose (log) −4.48) | MFI ([5]; TMP dose (log) −4.48, 48 h) | Stabilization ratio ([5]; TMP dose (log) −4.95) | MFI ([5]; TMP dose (log) −4.95, 48 h) | Stabilization ratio ([5]; TMP dose (log) −5.43) | MFI ([5]; TMP dose (log) −5.43, 48 h) | Stabilization ratio ([5]; TMP dose (log) −5.91) | MFI ([5]; TMP dose (log) −5.91, 48 h) | Stabilization ratio ([5]; TMP dose (log) −6.39) | MFI ([5]; TMP dose (log) −6.39, 48 h) | Stabilization ratio ([5]; TMP dose (log) −6.86) | MFI ([5]; TMP dose (log) −6.86, 48 h) | also measured |
| --- | --- | --- | --- | --- | --- | --- | --- | --- | --- | --- | --- | --- | --- | --- | --- | --- | --- |
| CN(Cc1cnc2nc(N)nc(N)c2n1)c1ccc(C(=O)N[C@@H](CCC(=O)O)C(=O)O)cc1 [Methotrexate] | – | – | – | – | – | – | – | – | – | – | – | – | – | – | – | – | Cmax ([1]; 12 g/m^2 infusion): 1500 nM; Duration of action [1]: >12 h |
| COc1cc(Cc2cnc(N)nc2N)cc(OC)c1OC [Trimethoprim] | – | – | – | – | – | – | – | – | – | – | – | – | – | – | – | – | Cmax ([1]; IV, approved dose IV 20 mg/kg/6 hr): 25000 nM; Cmax ([1]; PO, approved dose PO up to 20 mg/kg/day): 1000 nM; Duration of action [1]: 2 to 72 h |
| B1 | modest stabilization of Renilla luciferase in the presence of their corresponding ligand | – | – | – | – | – | – | – | – | – | – | – | – | – | – | – | – |
| B2 | – | – | – | – | – | – | – | – | – | – | – | – | – | – | – | – | % GFP positive cells ([3]; 1 μM MTX): 89.6%; GFP intensity Fold Change vs DMSO ([3]; 1 μM MTX): 26.98; % GFP positive cells ([3]; 10 μM TMP): 54.7%; GFP intensity Fold Change vs DMSO ([3]; 10 μM TMP): 6.24; % GFP positive cells ([3]; DMSO): 0.64%; Destabilizing mutation co-efficient ([3]; GFP intensity vs hDHFR (WT), no ligand): 0.14; Median Fluorescence signal with DMSO ([3]; hDHFR-GFP, DMSO 48 h, no ligand): 2.55; Protein level stabilization (immunoblot, FIG. 19) [4]: stabilized following treatment with both MTX and TMP |
| B3 | – | 3041 | 52.17 | 158659 | 37.93 | 115339 | 21.76 | 66170 | 7.71 | 23454 | 2.29 | 6966 | 1.43 | 4355 | 1.13 | 3439 | – |
| B4 | – | 2565 | 56.59 | 145144 | 38.52 | 98805 | 20.77 | 53282 | 6.14 | 15743 | 2.17 | 5576 | 1.30 | 3345 | 1.14 | 2922 | – |
| B5 | – | 2539 | 26.28 | 66732 | 8.23 | 20890 | 2.62 | 6641 | 1.38 | 3494 | 1.09 | 2766 | 1.03 | 2618 | 1.04 | 2643 | – |
| B6 | – | 2627 | 18.99 | 49891 | 4.66 | 12247 | 1.94 | 5092 | 1.24 | 3246 | 1.08 | 2826 | 1.03 | 2694 | 1.03 | 2704 | – |
| B7 | modest stabilization of Renilla luciferase in the presence of their corresponding ligand | – | – | – | – | – | – | – | – | – | – | – | – | – | – | – | – |
| B8 | modest stabilization of Renilla luciferase in the presence of their corresponding ligand | – | – | – | – | – | – | – | – | – | – | – | – | – | – | – | – |
| B9 | expression of Renilla luciferase both in the presence and absence of ligand | – | – | – | – | – | – | – | – | – | – | – | – | – | – | – | Luciferase activity (FIG. 59B) [2]: high luciferase activity both in the presence and absence of ligand |

Source: patent publication US12104178B2, “DHFR tunable protein regulation” (Obsidian Therapeutics, Inc., priority 2017, dated 2024)
